# Data published in the Immune Epitope Database (IEDB).
# Key:
# HLA-B*40:01 = assay: IEDB peptide-MHC binding, purified MHC/competitive/radioactivity; filed as Kd, often an IC50 or EC50 that approximates it; ≥ and ≤ were set here for values at or beyond the usual limits of such assays
# HLA-B*08:01 = assay: as above
# HLA-A*02:01 [1] = assay: IEDB peptide-MHC binding, purified MHC/competitive/fluorescence; filed as Kd, often an IC50 or EC50 that approximates it; ≥ and ≤ were set here for values at or beyond the usual limits of such assays
# HLA-A*02:01 [2] = assay: IEDB peptide-MHC binding, purified MHC/competitive/radioactivity; filed as Kd, often an IC50 or EC50 that approximates it; ≥ and ≤ were set here for values at or beyond the usual limits of such assays
# HLA-A*02:02 = assay: as above
# HLA-A*02:06 = assay: as above
# HLA-A*02:03 = assay: as above
# HLA-A*03:01 [3] = assay: as above
# HLA-B*15:01 [4] = assay: as above
# HLA-A*30:02 = assay: as above
# HLA-A*29:02 = assay: as above
# HLA-A*23:01 = assay: as above
# HLA-A*31:01 = assay: as above; settings: source organism: SARS coronavirus Tor2
# HLA-A*68:01 = assay: as above; settings: source organism: SARS coronavirus Tor2
# HLA-A*01:01 [5] = assay: as above
# HLA-A*24:02 = assay: as above
# HLA-A*33:01 = assay: as above; settings: source organism: SARS coronavirus Tor2
# HLA-A*26:01 = assay: as above
# HLA-A*11:01 [6] = assay: as above; settings: source organism: SARS coronavirus Tor2
# HLA-B*15:01 [7] = assay: IEDB peptide-MHC binding, purified MHC/competitive/fluorescence; filed as Kd, often an IC50 or EC50 that approximates it; ≥ and ≤ were set here for values at or beyond the usual limits of such assays
# HLA-A*30:01 = assay: IEDB peptide-MHC binding, purified MHC/competitive/radioactivity; filed as Kd, often an IC50 or EC50 that approximates it; ≥ and ≤ were set here for values at or beyond the usual limits of such assays
# HLA-A*32:01 = assay: as above
# HLA-A*69:01 = assay: IEDB peptide-MHC binding, purified MHC/direct/fluorescence; filed as Kd, often an IC50 or EC50 that approximates it; ≥ and ≤ were set here for values at or beyond the usual limits of such assays; settings: source organism: SARS-CoV1
# HLA-A*03:01 [8] = assay: as above; settings: source organism: SARS-CoV1
# HLA-B*15:01 [9] = assay: as above; settings: source organism: SARS-CoV1
# HLA-B*35:01 = assay: IEDB peptide-MHC binding, purified MHC/competitive/radioactivity; filed as Kd, often an IC50 or EC50 that approximates it; ≥ and ≤ were set here for values at or beyond the usual limits of such assays
# HLA-B*07:02 = assay: as above
# HLA-B*51:01 = assay: as above
# HLA-B*53:01 = assay: as above; settings: source organism: Dengue virus 3 Martinique/1243/1999
# HLA-B*58:01 = assay: IEDB peptide-MHC binding, purified MHC/direct/fluorescence; filed as Kd, often an IC50 or EC50 that approximates it; ≥ and ≤ were set here for values at or beyond the usual limits of such assays; settings: source organism: SARS-CoV1
# HLA-A*01:01 [10] = assay: as above; settings: source organism: SARS-CoV1
# HLA-A*11:01 [11] = assay: as above; settings: source organism: SARS-CoV1
# [12] = source organism: Dengue virus 1 Brazil/97-11/1997
# [13] = source organism: Vaccinia virus WR
# [14] = source organism: Dengue virus 4 Philippines/H241/1956
# [15] = source organism: SARS coronavirus Tor2
# [16] = source organism: Dengue virus 3 Martinique/1243/1999
# [17] = source organism: Bacillus cereus G9241
# [18] = source organism: Mammarenavirus juninense
# [19] = source organism: Mammarenavirus guanaritoense
# [20] = source organism: Dengue virus 2 Jamaica/1409/1983
# [21] = source organism: Vaccinia virus Copenhagen
sequence,measurement,setting,value
AETQHGTVLV,Kd,HLA-B*40:01; [12],98.4 nM
AGRRSVSGDL,Kd,HLA-B*08:01; [12],9260 nM
AINVEKIEL,Kd,HLA-A*02:01 [1]; [13],≥ 20000 nM
ALCKVTVPT,Kd,HLA-A*02:01 [2]; [13],31 nM
same,Kd,HLA-A*02:02; [13],110 nM
same,Kd,HLA-A*02:06; [13],210 nM
same,Kd,HLA-A*02:03; [13],130 nM
ALLAGFMAY,Kd,HLA-A*03:01 [3]; [14],1.67 nM
same,Kd,HLA-B*15:01 [4]; [14],1.14 nM
same,Kd,HLA-A*30:02; [14],80 nM
ALRFFLQRL,Kd,HLA-B*08:01; [13],1990 nM
ANISTILYF,Kd,HLA-B*15:01 [4]; [13],128 nM
AQGKPTLDF,Kd,HLA-B*15:01 [4]; [14],3.09 nM
ATVAYFNMVY,Kd,HLA-A*29:02; [15],0.00633 nM
same,Kd,HLA-A*23:01; [15],≥ 30900 nM
same,Kd,HLA-A*03:01 [3]; [15],269 nM
same,Kd,HLA-A*31:01,2330 nM
same,Kd,HLA-A*68:01,549 nM
same,Kd,HLA-A*01:01 [5]; [15],893 nM
same,Kd,HLA-A*24:02; [15],13000 nM
same,Kd,HLA-A*33:01,≥ 70000 nM
same,Kd,HLA-A*26:01; [15],979 nM
same,Kd,HLA-A*11:01 [6],74.2 nM
same,Kd,HLA-A*30:02; [15],1210 nM
EIFKHLVFF,Kd,HLA-B*15:01 [4]; [13],12.2 nM
FCSHHFHEL,Kd,HLA-B*08:01; [16],135 nM
FIASKGVKLV,Kd,HLA-A*02:01 [2]; source organism: Homo sapiens,37 nM
FLETDAGRV,Kd,HLA-A*02:01 [2]; source organism: Variola virus,100 nM
FQNWGIESI,Kd,HLA-A*02:01 [1]; source organism: Influenza A virus (A/Wilson-Smith/1933(H1N1)),2.3 nM
FQTLMHSPF,Kd,HLA-B*15:01 [7]; [17],23.1 nM
FSPRLCRPF,Kd,HLA-B*15:01 [7]; source organism: Escherichia coli 536,325 nM
GEKSRCYSIY,Kd,HLA-A*29:02; [18],≥ 51800 nM
same,Kd,HLA-A*23:01; [18],≥ 70000 nM
same,Kd,HLA-A*01:01 [5]; [18],13900 nM
same,Kd,HLA-A*24:02; [18],≥ 70300 nM
same,Kd,HLA-A*30:01; [18],2190 nM
same,Kd,HLA-A*26:01; [18],18000 nM
same,Kd,HLA-A*32:01; [18],≥ 69900 nM
same,Kd,HLA-A*30:02; [18],3160 nM
HTNFESFTV,Kd,HLA-A*29:02; [19],11200 nM
same,Kd,HLA-A*23:01; [19],≥ 48200 nM
same,Kd,HLA-A*01:01 [5]; [19],440 nM
same,Kd,HLA-A*24:02; [19],≥ 77500 nM
same,Kd,HLA-A*30:01; [19],182 nM
same,Kd,HLA-A*26:01; [19],≥ 36600 nM
same,Kd,HLA-A*32:01; [19],682 nM
same,Kd,HLA-A*30:02; [19],971 nM
IINKRKKTSL,Kd,HLA-B*08:01; [16],83.9 nM
ILIEGVFFA,Kd,HLA-A*02:01 [2]; source organism: Human alphaherpesvirus 2,0.16 nM
KRKLRTLIL,Kd,HLA-B*08:01; [12],462 nM
LAGPMVAGGL,Kd,HLA-B*08:01; [14],7750 nM
LAKRFSKGLL,Kd,HLA-B*08:01; [12],2530 nM
LEFEALGFLN,Kd,HLA-B*40:01; source organism: Murray valley encephalitis virus (strain MVE-1-51),144 nM
LEYTIVITPH,Kd,HLA-B*40:01; [20],2470 nM
LIIICCVSG,Kd,HLA-B*15:01 [4]; [21],403 nM
LIIMDEAHF,Kd,HLA-B*15:01 [4]; [20],19 nM
LINNGKCTF,Kd,HLA-B*15:01 [4]; [13],61.9 nM
LLALQQLEV,Kd,HLA-A*69:01,242 nM
same,Kd,HLA-A*03:01 [8],2020 nM
same,Kd,HLA-B*15:01 [9],3790 nM
same,Kd,HLA-A*02:01 [1]; source organism: SARS-CoV1,2.7 nM
same,Kd,HLA-A*02:02; [15],0.138 nM
same,Kd,HLA-A*02:06; [15],41.9 nM
same,Kd,HLA-A*02:03; [15],0.295 nM
LLKFRVESC,Kd,HLA-B*08:01; [21],74.4 nM
LNINKNGSF,Kd,HLA-B*15:01 [4]; [13],479 nM
LPQHLTLRAQ,Kd,HLA-B*35:01; [12],520 nM
same,Kd,HLA-B*07:02; [12],265 nM
same,Kd,HLA-B*51:01; [12],≥ 31700 nM
LPVCQSSSM,Kd,HLA-B*35:01; [16],12.6 nM
same,Kd,HLA-B*53:01,1010 nM
same,Kd,HLA-B*07:02; [16],10.5 nM
same,Kd,HLA-B*51:01; [16],2740 nM
LSEKWFTHA,Kd,HLA-B*15:01 [4]; [13],19100 nM
LVEKVLKIL,Kd,HLA-A*02:01 [1]; source organism: Vaccinia virus,992 nM
MAMFYAHAL,Kd,HLA-A*32:01; [13],12500 nM
same,Kd,HLA-B*08:01; [13],1.15 nM
MECSPRTGL,Kd,HLA-B*40:01; [20],153 nM
MLVTPSMAM,Kd,HLA-B*35:01; [12],442 nM
same,Kd,HLA-A*26:01; [12],6420 nM
same,Kd,HLA-B*15:01 [4]; [12],3.06 nM
MPVTVASAAQ,Kd,HLA-B*35:01; [12],391 nM
same,Kd,HLA-B*07:02; [12],446 nM
same,Kd,HLA-B*51:01; [12],≥ 69600 nM
NQYLLTMFF,Kd,HLA-B*15:01 [4]; [13],1.21 nM
QETWNRQDLL,Kd,HLA-B*40:01; [12],9.21 nM
QLQPFLQPQL,Kd,HLA-A*02:01 [2]; source organism: Triticum aestivum,≥ 10000 nM
QNHKKSAHF,Kd,HLA-B*15:01 [4]; [13],412 nM
RDALDNLAVL,Kd,HLA-B*08:01; [20],1160 nM
RKSGKKVIQL,Kd,HLA-B*08:01; [14],301 nM
RLNALGKSEF,Kd,HLA-B*15:01 [4]; [20],17.2 nM
RMFHFFEHE,Kd,HLA-B*15:01 [4]; [13],66.9 nM
RRKRSVTMLL,Kd,HLA-B*08:01; [12],3650 nM
RSIRKFNTM,Kd,HLA-B*08:01; [13],16.9 nM
same,Kd,HLA-B*15:01 [4]; [13],4.38 nM
RTKAIGLNF,Kd,HLA-B*15:01 [7]; [17],84.7 nM
RVIDPRRCM,Kd,HLA-B*07:02; [20],1150 nM
SEIKRGLFF,Kd,HLA-B*15:01 [4]; [13],323 nM
SLNALFVML,Kd,HLA-A*32:01; [13],1230 nM
same,Kd,HLA-B*08:01; [13],1260 nM
SMPDFDLHL,Kd,HLA-A*02:01 [2]; source organism: Homo sapiens,5.2 nM
SNAAIGAVF,Kd,HLA-B*15:01 [4]; [12],77.8 nM
SPYVKFIYF,Kd,HLA-B*08:01; [13],1780 nM
TMADLVYAL,Kd,HLA-A*29:02; [15],≥ 23000 nM
same,Kd,HLA-A*23:01; [15],6580 nM
same,Kd,HLA-A*02:02; [15],0.183 nM
same,Kd,HLA-A*02:06; [15],46.5 nM
same,Kd,HLA-A*02:03; [15],16.2 nM
same,Kd,HLA-A*01:01 [5]; [15],≥ 62500 nM
same,Kd,HLA-A*24:02; [15],10100 nM
same,Kd,HLA-A*26:01; [15],≥ 77900 nM
same,Kd,HLA-A*30:02; [15],≥ 93800 nM
TPQPKPGTRM,Kd,HLA-B*35:01; [14],177 nM
same,Kd,HLA-B*07:02; [14],39.9 nM
TQDLFLPFY,Kd,HLA-B*58:01,≥ 31500 nM
same,Kd,HLA-A*01:01 [10],1810 nM
same,Kd,HLA-B*15:01 [9],1710 nM
same,Kd,HLA-A*11:01 [11],424 nM
same,Kd,HLA-A*29:02; [15],426 nM
same,Kd,HLA-A*23:01; [15],≥ 67400 nM
same,Kd,HLA-A*24:02; [15],≥ 77600 nM
same,Kd,HLA-A*26:01; [15],16800 nM
same,Kd,HLA-A*30:02; [15],5.13 nM
TQWCSRSVY,Kd,HLA-B*15:01 [7]; source organism: Escherichia coli 101-1,84.3 nM
TTAEEAAGI,Kd,HLA-A*02:01 [2]; source organism: Homo sapiens,4170 nM
TVIDLEPISY,Kd,HLA-A*01:01 [5]; [14],8390 nM
same,Kd,HLA-B*15:01 [4]; [14],1.36 nM
VEAGRTLRVL,Kd,HLA-B*40:01; source organism: Dengue virus 2 Peru/IQT2913/1996,12.1 nM
VEETNMITL,Kd,HLA-B*40:01; source organism: Dengue virus 4 Dominica/814669/1981,27.1 nM
VIEEVMNIV,Kd,HLA-A*02:01 [2]; source organism: Lassa virus GA391,6250 nM
YMGEDGCWY,Kd,HLA-A*01:01 [5]; [16],177 nM
same,Kd,HLA-B*15:01 [4]; [16],14.8 nM
same,Kd,HLA-A*30:02; [16],≥ 36900 nM
YVFFEIIHF,Kd,HLA-B*15:01 [4]; [21],0.692 nM
